In patent US20170145104A1 (Bristol-Myers Squibb, published 2017):
Residue numbers refer to the chain shown, from its start. Numbers in names are those of the source.

T1: human GITR, membrane bound (on activated human T cells and on 3A9-hGITR cells) (human, UniProt Q9Y5U5 26-241)
T1 construct: whole, on cells; the cell is named under assay; also called huGITR; TNFRSF18
T1 sequence (looked up): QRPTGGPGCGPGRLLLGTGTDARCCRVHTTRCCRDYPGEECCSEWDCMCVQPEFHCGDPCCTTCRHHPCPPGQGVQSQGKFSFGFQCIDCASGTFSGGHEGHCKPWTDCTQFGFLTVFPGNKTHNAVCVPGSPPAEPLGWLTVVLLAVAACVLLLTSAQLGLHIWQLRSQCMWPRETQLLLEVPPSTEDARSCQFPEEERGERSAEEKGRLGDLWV

T2: cynomolgus GITR on activated cynomolgus T cells (cynomolgus, UniProt Q9Y5U5 26-241 (human entry))
T2 construct: also called cyno GITR
T2 chain: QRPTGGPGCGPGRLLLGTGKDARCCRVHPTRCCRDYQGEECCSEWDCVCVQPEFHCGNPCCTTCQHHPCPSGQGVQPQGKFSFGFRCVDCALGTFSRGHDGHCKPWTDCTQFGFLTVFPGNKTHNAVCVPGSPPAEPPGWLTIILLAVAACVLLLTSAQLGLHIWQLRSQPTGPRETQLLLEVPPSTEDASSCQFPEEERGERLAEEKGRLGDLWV

B1: 28F3 VH CDR3 mutant M98A (antibody, V domains shown)
VH: QVQLVESGGGVVQPGRSLRLSCAASGFTFSSYGMHWVRQAPGKGLEWVAVIWYEGSNKYYADSVKGRFTISRDNSKNTLYLQMNSLRAEDTAVYYCARGGSAVRGDYYYGMDVWGQGTTVTVSS
VL: AIQLTQSPSSLSASVGDRVTITCRASQGISSALAWYQQKPGKAPKLLIYDASSLESGVPSRFSGSGSGTDFTLTISSLQPEDFATYYCQQFNSYPYTFGQGTKLEIK
notes: also called F6
B2: 28F3 VH CDR3 mutant M98I (antibody, V domains shown)
VH: B1 VH with A102I
VL: B1 VL
notes: also called C6
B3: 28F3 VH CDR3 mutant M98S, D106E, M111F (antibody, V domains shown)
VH: B1 VH with A102S, D106E, M111F
VL: B1 VL
notes: also called E4
B4: 28F3 VH CDR3 mutant M98L, D106E, M111F (antibody, V domains shown)
VH: B1 VH with A102L, D106E, M111F
VL: B1 VL
notes: also called C4
B5: 28F3 VH CDR3 mutant M98L (antibody, V domains shown)
VH: B1 VH with A102L
VL: B1 VL
notes: also called B6
B6: 28F3 VH CDR3 mutant M98Y, D106E (antibody, V domains shown)
VH: B1 VH with A102Y, D106E
VL: B1 VL
notes: also called G5
B7: 28F3 VH CDR3 mutant M98S, D106E (antibody, V domains shown)
VH: B1 VH with A102S, D106E
VL: B1 VL
notes: also called E5
B8: 28F3 VH CDR3 mutant M98A, D106E (antibody, V domains shown)
VH: B1 VH with D106E
VL: B1 VL
notes: also called F5
B9: 28F3 VH CDR3 mutant M98F, D106E (antibody, V domains shown)
VH: B1 VH with A102F, D106E
VL: B1 VL
notes: also called A5
B10: 28F3 VH CDR3 mutant M98F, D106E, M111F (antibody, V domains shown)
VH: B1 VH with A102F, D106E, M111F
VL: B1 VL
notes: also called B4
B11: 28F3 VH CDR3 mutant M98V (antibody, V domains shown)
VH: B1 VH with A102V
VL: B1 VL
notes: also called H5
B12: 28F3 VH CDR3 mutant M98Q, D106E, M111F (antibody, V domains shown)
VH: B1 VH with A102Q, D106E, M111F
VL: B1 VL
notes: also called D4
B13: 28F3 VH CDR3 mutant M98I, D106E (antibody, V domains shown)
VH: B1 VH with A102I, D106E
VL: B1 VL
notes: also called C5; M98I/D160E
B14: 28F3 VH CDR3 mutant M98Y (antibody, V domains shown)
VH: B1 VH with A102Y
VL: B1 VL
notes: also called G6
B15: 28F3 VH CDR3 mutant M98Q, D106E (antibody, V domains shown)
VH: B1 VH with A102Q, D106E
VL: B1 VL
notes: also called D5
B16: 28F3 VH CDR3 mutant M98S (antibody, V domains shown)
VH: B1 VH with A102S
VL: B1 VL
notes: also called E6
B17: 28F3 VH CDR3 mutant M98L, D106E (antibody, V domains shown)
VH: B1 VH with A102L, D106E
VL: B1 VL
notes: also called B5
B18: 28F3 VH CDR3 mutant M98A, D106E, M111F (antibody, V domains shown)
VH: B1 VH with D106E, M111F
VL: B1 VL
notes: also called F4
B19: 28F3 VH CDR3 mutant M98V, D106E, M111F (antibody, V domains shown)
VH: B1 VH with A102V, D106E, M111F
VL: B1 VL
notes: also called A4
B20: 28F3 VH CDR3 mutant M98Q (antibody, V domains shown)
VH: B1 VH with A102Q
VL: B1 VL
notes: also called D6
B21: 28F3 VH CDR3 mutant M98F (antibody, V domains shown)
VH: B1 VH with A102F
VL: B1 VL
notes: also called A6
B22: 28F3 VH CDR3 mutant M98Y, D106E, M111F (antibody, V domains shown)
VH: B1 VH with A102Y, D106E, M111F
VL: B1 VL
notes: also called G4
B23: 28F3 VH CDR3 mutant M98V, D106E (antibody, V domains shown)
VH: B1 VH with A102V, D106E
VL: B1 VL
notes: also called H4
B24: 3C3 (antibody, human IgG1, kappa, V domains shown)
VH: QVQLQQWGAGLLKPSETLSLTCAVYGGSFSGYYWTWIRQPPGKGLEWIGKINHSGNTNYNPSLKSRVTISVDTSKNQFSLKLSSVTAADTAVYYCARLGAFDAFDIWGQGTMVTVSS
VL: DIQMTQSPSSLSASVGDRVTITCRASQGISSWLAWYQQKPEKAPKSLIYAASSLQSGVPSRFSGSGSGTDFTLTISSLQPEDFATYYCQQYNSYPYTFGQGTKLEIKR
notes: Hybridoma-derived human antibody; also called GITR.3; 3C3-1
B25: 19D3 (antibody, human IgG2, kappa, V domains shown)
VH: QVQLVESGGGVVQPGRSLRLSCAASGFTFSSYGFHWVRQAPGKGLEWVAVIWYAGSNKFYADSVKGRFTISRDNSKNTLYLQMNSLRAEDTAVYYCARGGQLDYYYYYVMDVWGQGTTVTVSS
VL: B24 VL
notes: Hybridoma-derived human antibody; also called 19D3-IgG2
B26: 18E10 (antibody, human IgG2, kappa, V domains shown)
VH: B25 VH with F34M, F59Y, Q101R, L102I, D103A, Y104V, Y105A, Y106F, V109S
VL: B24 VL
notes: Hybridoma-derived human antibody; also called 18E10-IgG2

Experiments:
[1] = target: T1, human GITR, membrane bound (on …); experiment: FACS binding to 3A9-hGITR transfectant, Geo-MFI (PE); EC50 table beside the curves; unit from the axis
[2] = target: T1, human GITR, membrane bound (on …); experiment: FACS binding to 3A9-hGITR transfectant, Geo-MFI (PE); EC50 table beside the curves; unit from the axis; the lowest curve (small diamonds) reaches only about 40 Geo-MFI at the top concentration
[3] = target: T1, human GITR, membrane bound (on …); experiment: FACS, activated human T cells (anti-CD3/anti-CD28), PE anti-human IgG
Description: (§1) Peripheral Blood Mononuclear Cells (PBMCs) isolated from human or cynomolgus monkey were activated with plate-coated anti-CD3 antibody (Clone: UCHT1 for human T cell activation; Clone: SP34 for cynomolgus T cell activation; both from BD Biosciences) and soluble anti-CD28 antibody (Clone:CD28.2 for both human and cynomolgus monkey, BD Biosciences) for 4 days (human)/or 5 days (cynomolgus monkey). The cells were tested for GITR mAb binding in a fluorescence-activated cell sorting (FACS)-based assay using a phycoerythrin (PE)-conjugated anti-human IgG antibody (Jackson ImmunoResearch). The samples were analyzed on a BD FACS Canto Flow Cytometer.

[4] = target: T1, human GITR, membrane bound (on …); experiment: FACS blocking assay on GITR-3A9 cells with GITR-L, plotted as % inhibition. The table prints no unit, so ug/mL is taken from the axis 'Conc (ug/mL)'.
[5] = target: T2, cynomolgus GITR on activated cynomolgus …; experiment: FACS on activated cynomolgus T cells, PE anti-human IgG. The EC50 table prints no unit, so nM is taken from the axis 'Concentration (nM)'. The 3C3 curve itself is flat, see non_binding.
Description: as §1

[6] = target: T1, human GITR, membrane bound (on …); experiment: FACS blocking assay on GITR-3A9 cells: antibody titrated first, then GITR-L, bound GITR-L read as GMFI (PE). The table prints no unit, so ug/mL is taken from the axis 'Conc (ug/mL)'.
[7] = target: T2, cynomolgus GITR on activated cynomolgus …; experiment: FACS, activated cynomolgus T cells (anti-CD3/anti-CD28), PE anti-human IgG
Description: as §1

EC50 [1] [µM] | further results | Binder
0.0015 | – | B1
0.00142 | – | B2
– | EC50 [2]: ~38600 µM | B3
0.000638 | – | B4
0.000757 | – | B5
0.000798 | – | B6
0.00229 | – | B7
0.000401 | – | B8
0.000683 | – | B9
0.054 | – | B10
0.00034 | – | B11
0.00333 | – | B12
0.000349 | – | B13
0.00168 | – | B14
0.000968 | – | B15
0.00351 | – | B16
0.000311 | – | B17
0.0191 | – | B18
0.000772 | – | B19
0.00144 | – | B20
0.000797 | – | B21
0.045 | – | B22
0.00058 | – | B23
– | EC50 [3]: 0.0492 nM; EC50 [4]: 0.0693 µg/mL; EC50 [5]: 0.142 µM; EC50 [6]: 0.0693 µg/mL | B24
– | EC50 [3]: 0.363 nM; EC50 [4]: 0.755 µg/mL; EC50 [6]: 0.755 µg/mL | B25
– | EC50 [3]: 0.146 nM; EC50 [7]: 0.000913 µM | B26
